Data taken from PMC4822050.

T1: UHRF1 full-length (human, UniProt Q96T88 1-793)
T1 sequence: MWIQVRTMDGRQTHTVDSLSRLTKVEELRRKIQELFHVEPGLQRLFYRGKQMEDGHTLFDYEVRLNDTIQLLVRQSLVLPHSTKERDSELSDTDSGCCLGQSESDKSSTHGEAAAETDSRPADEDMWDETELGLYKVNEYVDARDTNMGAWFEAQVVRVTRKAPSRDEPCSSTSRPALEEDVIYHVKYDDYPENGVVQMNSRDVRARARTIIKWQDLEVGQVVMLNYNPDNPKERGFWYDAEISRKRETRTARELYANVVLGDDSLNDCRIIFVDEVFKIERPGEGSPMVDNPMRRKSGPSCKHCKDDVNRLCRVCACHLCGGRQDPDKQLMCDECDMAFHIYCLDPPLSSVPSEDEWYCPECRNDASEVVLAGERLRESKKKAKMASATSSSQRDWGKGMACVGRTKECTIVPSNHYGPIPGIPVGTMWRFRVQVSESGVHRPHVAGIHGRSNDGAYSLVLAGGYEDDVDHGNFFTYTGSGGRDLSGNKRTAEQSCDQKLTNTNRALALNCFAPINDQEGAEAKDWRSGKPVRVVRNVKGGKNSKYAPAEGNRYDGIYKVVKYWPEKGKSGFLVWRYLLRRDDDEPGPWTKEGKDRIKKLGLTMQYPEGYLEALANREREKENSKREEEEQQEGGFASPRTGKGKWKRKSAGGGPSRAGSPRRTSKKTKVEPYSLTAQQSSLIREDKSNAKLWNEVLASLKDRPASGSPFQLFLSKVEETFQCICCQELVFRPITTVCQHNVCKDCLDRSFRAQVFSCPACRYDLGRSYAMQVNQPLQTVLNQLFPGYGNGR

T2: SRA-Spacer (human, UniProt Q96T88 414-674)
T2 sequence: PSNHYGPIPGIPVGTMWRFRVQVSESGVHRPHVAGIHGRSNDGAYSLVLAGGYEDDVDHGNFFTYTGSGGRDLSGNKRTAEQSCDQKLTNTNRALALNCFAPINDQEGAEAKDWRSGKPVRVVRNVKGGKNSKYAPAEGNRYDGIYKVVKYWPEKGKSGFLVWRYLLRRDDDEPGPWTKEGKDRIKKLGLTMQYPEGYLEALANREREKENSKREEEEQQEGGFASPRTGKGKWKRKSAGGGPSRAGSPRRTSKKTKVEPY


How the values were obtained:
UHRF1 full-length = target: T1, UHRF1 full-length; test: pull-down; H3 (1-17) peptide; affinity not affected; ITC: 10 mM HEPES pH 8.0, 100 mM NaCl, 18 C; EMSA: 20 mM HEPES pH 7.5, 100 mM NaCl, 8% glycerol, 1 mM DTT, on ice; pull-down: 20 mM HEPES-NaOH pH 8.0, 100 mM NaC
SRA-Spacer = target: T2, SRA-Spacer; test: X-ray crystallography; 3.15 A; Spacer residues 617-674 not built; ITC: 10 mM HEPES pH 8.0, 100 mM NaCl, 18 C; EMSA: 20 mM HEPES pH 7.5, 100 mM NaCl, 8% glycerol, 1 mM DTT, on ice; pull-down: 20 mM HEPES-NaOH pH 8.0, 100 mM NaC

Binder | binding result (UHRF1 full-length) | binding result (SRA-Spacer)
biotin-hm-DNA 12 bp (pull-down) (dsDNA, 5-methyl-dC at position 6 of strand 1 (GAGGCXGCCTGC)) DNA 1: GAGGCCGCCTGC DNA 2: GCAGGCGGCCTC | binds | 
18-bp hm-DNA (crystal) (dsDNA, 5-methyl-dC at position 6 of strand 2 (GGGCCXGCAGGGACGATG)) DNA 1: CATCGTCCCTGCGGGCCC DNA 2: GGGCCCGCAGGGACGATG |  | binds
